The results in this text go back to patent US20220315554A1, “COMPOUNDS COMPRISING A […] LIGAND AND USE THEREOF” (priority 2019, published 2022).

Holding throughout (assay): radioligand displacement, 10 uM compound
What all share (details): remark: other sources report otherwise

Experiment [1] addresses 5-HT2B (h) (human (printed (h))), P41595.
The target in experiment [2] is T1, 5-HT3 (h) (human (printed (h))), P46098.
T1 chain: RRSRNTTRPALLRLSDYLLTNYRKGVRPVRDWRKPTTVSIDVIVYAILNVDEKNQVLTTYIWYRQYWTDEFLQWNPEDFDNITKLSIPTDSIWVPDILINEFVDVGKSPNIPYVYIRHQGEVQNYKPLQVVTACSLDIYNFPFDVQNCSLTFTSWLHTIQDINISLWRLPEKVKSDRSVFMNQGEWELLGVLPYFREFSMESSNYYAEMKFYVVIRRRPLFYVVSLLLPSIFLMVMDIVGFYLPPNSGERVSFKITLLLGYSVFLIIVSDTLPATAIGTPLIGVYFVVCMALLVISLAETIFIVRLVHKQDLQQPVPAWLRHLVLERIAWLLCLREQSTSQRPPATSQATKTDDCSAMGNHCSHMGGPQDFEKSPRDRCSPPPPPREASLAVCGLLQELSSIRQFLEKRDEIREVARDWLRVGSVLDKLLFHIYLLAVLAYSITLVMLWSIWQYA

For experiment [3], the target named is T2, A2A (h) (human (printed (h))), P29274.
T2 chain: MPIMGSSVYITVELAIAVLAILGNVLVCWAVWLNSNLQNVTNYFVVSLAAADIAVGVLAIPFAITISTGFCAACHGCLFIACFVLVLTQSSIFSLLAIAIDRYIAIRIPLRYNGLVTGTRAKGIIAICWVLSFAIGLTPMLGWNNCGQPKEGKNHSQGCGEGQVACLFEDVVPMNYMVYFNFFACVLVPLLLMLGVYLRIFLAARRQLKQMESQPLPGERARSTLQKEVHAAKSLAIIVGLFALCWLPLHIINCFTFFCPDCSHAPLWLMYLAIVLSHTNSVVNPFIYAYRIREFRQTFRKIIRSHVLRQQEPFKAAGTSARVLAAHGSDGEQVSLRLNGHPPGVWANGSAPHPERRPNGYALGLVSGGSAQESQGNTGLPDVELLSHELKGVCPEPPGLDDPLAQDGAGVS

Experiment [4] has as its target T3, CB1 (h) (human (printed (h))), P21554.
T3 chain: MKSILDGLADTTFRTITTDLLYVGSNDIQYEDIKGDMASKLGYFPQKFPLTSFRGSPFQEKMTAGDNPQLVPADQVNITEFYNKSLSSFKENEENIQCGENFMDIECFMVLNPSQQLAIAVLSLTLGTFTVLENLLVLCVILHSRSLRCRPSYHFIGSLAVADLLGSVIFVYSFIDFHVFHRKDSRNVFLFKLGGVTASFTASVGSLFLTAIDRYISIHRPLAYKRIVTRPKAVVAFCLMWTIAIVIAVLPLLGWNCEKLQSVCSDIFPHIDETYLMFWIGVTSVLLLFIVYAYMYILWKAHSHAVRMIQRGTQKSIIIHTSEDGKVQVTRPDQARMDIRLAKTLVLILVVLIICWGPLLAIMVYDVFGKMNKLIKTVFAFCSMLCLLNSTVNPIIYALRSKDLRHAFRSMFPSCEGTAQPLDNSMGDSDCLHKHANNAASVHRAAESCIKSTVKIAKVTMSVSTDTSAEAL

In experiment [5] the target is T4, D1 (h) (human (printed (h))), P21728.
T4 chain: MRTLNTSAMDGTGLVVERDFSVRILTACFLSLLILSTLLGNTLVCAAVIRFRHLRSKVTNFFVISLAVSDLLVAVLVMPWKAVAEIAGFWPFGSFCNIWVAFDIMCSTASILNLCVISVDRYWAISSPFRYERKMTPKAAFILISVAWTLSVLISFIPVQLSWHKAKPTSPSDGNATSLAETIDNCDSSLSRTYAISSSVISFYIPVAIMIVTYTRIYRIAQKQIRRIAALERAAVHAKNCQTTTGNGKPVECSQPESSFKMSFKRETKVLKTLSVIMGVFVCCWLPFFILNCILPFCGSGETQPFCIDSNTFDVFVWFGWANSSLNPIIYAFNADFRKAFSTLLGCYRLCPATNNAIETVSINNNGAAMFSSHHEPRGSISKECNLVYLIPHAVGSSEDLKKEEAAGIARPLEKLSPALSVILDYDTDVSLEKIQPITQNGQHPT

Experiment [6] addresses T5, ETA (h) (human (printed (h))), P25101.
T5 chain: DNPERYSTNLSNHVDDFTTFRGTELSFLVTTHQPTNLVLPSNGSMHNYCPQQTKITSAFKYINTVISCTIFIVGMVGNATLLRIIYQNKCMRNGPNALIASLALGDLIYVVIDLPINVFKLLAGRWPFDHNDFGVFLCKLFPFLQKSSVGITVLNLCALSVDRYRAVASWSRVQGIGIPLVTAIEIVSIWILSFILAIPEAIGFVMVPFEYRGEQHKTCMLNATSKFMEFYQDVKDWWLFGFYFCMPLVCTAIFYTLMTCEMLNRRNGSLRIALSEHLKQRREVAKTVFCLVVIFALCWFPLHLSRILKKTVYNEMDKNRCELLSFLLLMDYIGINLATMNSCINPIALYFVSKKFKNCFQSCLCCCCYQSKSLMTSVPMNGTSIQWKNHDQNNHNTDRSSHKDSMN

The target of experiment [7] is H1 (h) (human (printed (h))), P35367.
Sequence of H1 (h) (human (printed (h))), P35367 (P35367 whole entry): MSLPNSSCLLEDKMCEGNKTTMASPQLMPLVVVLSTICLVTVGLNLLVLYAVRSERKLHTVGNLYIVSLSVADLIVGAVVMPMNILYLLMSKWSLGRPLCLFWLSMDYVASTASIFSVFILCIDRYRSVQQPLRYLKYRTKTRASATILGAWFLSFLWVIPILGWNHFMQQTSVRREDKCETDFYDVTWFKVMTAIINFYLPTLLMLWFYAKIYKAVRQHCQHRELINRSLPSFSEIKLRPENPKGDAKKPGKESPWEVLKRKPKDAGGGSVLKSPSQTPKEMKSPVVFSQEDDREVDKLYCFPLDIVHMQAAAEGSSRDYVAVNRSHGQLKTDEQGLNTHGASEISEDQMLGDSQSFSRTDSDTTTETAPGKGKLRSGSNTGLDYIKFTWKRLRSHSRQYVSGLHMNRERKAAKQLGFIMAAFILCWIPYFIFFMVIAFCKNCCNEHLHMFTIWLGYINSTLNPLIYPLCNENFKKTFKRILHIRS
Experiment [8] deals with T6, delta (DOP) (h) (human), P41143.
T6 chain: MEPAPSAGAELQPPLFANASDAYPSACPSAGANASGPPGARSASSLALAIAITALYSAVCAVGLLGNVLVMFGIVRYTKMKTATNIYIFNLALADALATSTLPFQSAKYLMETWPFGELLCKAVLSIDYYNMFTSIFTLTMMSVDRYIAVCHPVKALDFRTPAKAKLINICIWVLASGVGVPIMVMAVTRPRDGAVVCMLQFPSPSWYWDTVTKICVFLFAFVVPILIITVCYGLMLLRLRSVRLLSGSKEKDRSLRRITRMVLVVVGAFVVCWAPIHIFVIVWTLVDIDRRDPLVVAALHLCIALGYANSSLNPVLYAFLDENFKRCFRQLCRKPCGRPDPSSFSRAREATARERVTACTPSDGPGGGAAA

Bridge positions count the residues as written; N and C are the ends. * marks the point of attachment. tMeBn(DOTA-AET) = Cys-Cys bridge (thioethers) carrying DOTA-AET; tMeBn(DOTA-PP) = Cys-Cys bridge (thioethers) carrying DOTA-PP; Hexanoyl = CCCCCC(=O)*

B1: Hex-[Cys(tMeBn(DOTA-AET))-Pro-Pro-Thr-Gln-Phe-Cys]-OH (3BP-3554) (peptide)
peptide: Hexanoyl-CPPTQFC-OH
modifications: linker 1-7 via tMeBn(DOTA-AET)
On to B1, for which the % Inhibition of Specific Binding was 3% in experiment [1]; 4% in experiment [2]; -16% in experiment [3]; -7% in experiment [4]; 7% in experiment [5]; 6% in experiment [6]. In addition, the % Inhibition of Specific Binding turned out to be 4% in experiment [7] and 1% in experiment [8].

B2: Hex-[Cys(tMeBn(DOTA-PP))-Pro-Pro-Thr-Gln-Phe-Cys]-Asp-NH2 (3BP-3407) (peptide)
peptide: Hexanoyl-CPPTQFCD-NH2
modifications: linker 1-7 via tMeBn(DOTA-PP)
For B2, the % Inhibition of Specific Binding in experiment [1] is 2%; in experiment [2], 2%; in experiment [3] it was -4%; in experiment [4], 5%; in experiment [5], 0%; in experiment [6], -18%. The % Inhibition of Specific Binding turned out to be 11% in experiment [7] and 0% in experiment [8].
